Measurements as given in US20160264649A1 (published 2016).
Residue numbers refer to the chain shown, from its start.

B1: 1443_C16 (PG16) (TCN-116) (antibody, V domains shown)
VH: QEQLVESGGGVVQPGGSLRLSCLASGFTFHKYGMHWVRQAPGKGLEWVALISDDGMRKYHSDSMWGRVTISRDNSKNTLYLQFSSLKVEDTAMFFCAREAGGPIWHDDVKYYDFNDGYYNYHYMDVWGKGTTVTVSS
VL: QSALTQPASVSGSPGQTITISCNGTSSDVGGFDSVSWYQQSPGKAPKVMVFDVSHRPSGISNRFSGSKSGNTASLTISGLHIEDEGDYFCSSLTDRSHRIFGGGTKVTVLG
B2: 1495_C14 (PGC14) (antibody, human IgG1, lambda, V domains shown)
VH: DGHLVQSGVEVKKTGATVKISCKVSGYSFIDYYLHWVQRAPGKGLEWVGLIDPENGEARYAEKFQGRVTIIADTSIDTGYMEMRSLKSEDTAVYFCAAGAVGADSGSWFDPWGQGTLVTVSS
VL: SYELTQPPSVSVSPGQTASITCSGSKLGDKYVSWYQLRPGQSPILVMYENDRRPSGIPERFSGSNSGDTATLTISGTQALDEADFYCQAWETTTTTFVFFGGGTQLTVLG
B3: 1496_C09 (PG9) (TCN-109) (antibody, V domains shown)
VH: QRLVESGGGVVQPGSSLRLSCAASGFDFSRQGMHWVRQAPGQGLEWVAFIKYDGSEKYHADSVWGRLSISRDNSKDTLYLQMNSLRVEDTATYFCVREAGGPDYRNGYNYYDFYDGYYNYHYMDVWGKGTTVTVSS
VL: QSALTQPASVSGSPGQSITISCNGTSNDVGGYESVSWYQQHPGKAPKVVIYDVSKRPSGVSNRFSGSKSGNTASLTISGLQAEDEGDYYCKSLTSTRRRVFGTGTKLTVLG
B4: 1496 C09 γ3 017 + 1496 C09 λ3 024 (antibody, V domains shown)
VH: B3 VH
VL: B1 VL
B5: 1456_P20 (PG20) (antibody, human IgG1, kappa, V domains shown)
VH: QVRLVQSGPEVKKPGSSVTVSCQASGGTFSSYAFTWVRQAPGQGLEWLGMVTPIFGEAKYSQRFEGRVTITADESTSTTSIELRGLTSEDTAIYYCARDRRAVPIATDNWLDPWGQGTLVTVSS
VL: DIQLTQSPSSLSASVGDRVSITCRASQTINNYLNWYQQTPGKAPKLLIYGASNLQNGVPSRFSGSGSGTDFTLTISSLQPEDFATYYCQQSFSTPRTFGQGTRLDIKR
B6: 1460_G14 (PGG14) (antibody, human IgG1, kappa, V domains shown)
VH: QVLLVQSGTEVKKPGSSVKVSCQASGGAFSSYAFSWVRQAPGQGLEWMGMITPVFGETKYAPRFQGRLTLTAEESLSTTYMELRSLTSDDTAFYYCTRDRRVVPMATDNWLDPWGQGTLVTVSS
VL: B5 VL with S20T, I21V, N30H, N31T, T39I, N53T, N56S, S76N, F92Y

Columns and labels:
Assay in all cases: cell-based or functional assay
HIV-1 SF162 Env [1] = biological target: T1, HIV-1 SF162 Env (HIV-1 strain SF162, UniProt P19550 32-847)
HIV-1 JR-CSF Env (gp160) = HIV-1 JR-CSF Env (gp160) (HIV-1 isolate JR-CSF, UniProt P20871 32-848)
Chain of HIV-1 JR-CSF Env (gp160) (P20871 32-848): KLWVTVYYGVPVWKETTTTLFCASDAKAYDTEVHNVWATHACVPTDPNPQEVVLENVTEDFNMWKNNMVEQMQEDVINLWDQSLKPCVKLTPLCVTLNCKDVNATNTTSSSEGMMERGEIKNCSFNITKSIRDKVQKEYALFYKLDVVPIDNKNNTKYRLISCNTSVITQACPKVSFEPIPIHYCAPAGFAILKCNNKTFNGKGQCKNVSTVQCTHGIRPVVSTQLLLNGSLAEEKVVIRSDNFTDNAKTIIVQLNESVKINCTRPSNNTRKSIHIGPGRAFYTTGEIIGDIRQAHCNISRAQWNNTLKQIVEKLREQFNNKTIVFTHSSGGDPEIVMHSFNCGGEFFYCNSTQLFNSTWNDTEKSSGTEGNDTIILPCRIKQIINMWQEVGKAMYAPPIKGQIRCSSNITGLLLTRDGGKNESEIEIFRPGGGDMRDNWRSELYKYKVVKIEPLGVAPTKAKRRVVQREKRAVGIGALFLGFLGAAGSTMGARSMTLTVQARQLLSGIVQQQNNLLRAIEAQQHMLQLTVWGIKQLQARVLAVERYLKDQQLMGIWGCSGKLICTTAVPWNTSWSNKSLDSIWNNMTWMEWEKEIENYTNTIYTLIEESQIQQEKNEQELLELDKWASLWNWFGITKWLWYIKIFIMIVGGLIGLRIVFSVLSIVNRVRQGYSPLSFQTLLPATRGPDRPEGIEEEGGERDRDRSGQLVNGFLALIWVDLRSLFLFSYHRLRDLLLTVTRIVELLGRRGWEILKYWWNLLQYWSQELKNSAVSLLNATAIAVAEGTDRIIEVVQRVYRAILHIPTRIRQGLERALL

HIV-1 SF162 Env [2] = biological target: T1, HIV-1 SF162 Env; remark: listed apart in the source
HIV-1 94UG103 Env = HIV-1 94UG103 Env (HIV-1 strain 94UG103)
HIV-1 92BR020 Env = HIV-1 92BR020 Env (HIV-1 strain 92BR020)
HIV-1 93IN905 Env = HIV-1 93IN905 Env (HIV-1 strain 93IN905)
HIV-1 IAVI_C22 Env = HIV-1 IAVI_C22 Env (HIV-1 strain IAVI C22)
HIV-1 92TH021 Env = HIV-1 92TH021 Env (HIV-1 strain 92TH021)
HIV-1 NL43 Env = HIV-1 NL43 Env (HIV-1 strain NL43)
aMLV Env = aMLV Env (aMLV)

Binder	Neutralization Index SF162 (clonal H and L transfectant) (HIV-1 SF162 Env [1])	IC50 neutralization, 1 hour virus/Ab incubation (HIV-1 JR-CSF Env (gp160)) [µg/mL]	IC50 neutralization, 18 hour virus/Ab incubation (HIV-1 JR-CSF Env (gp160)) [µg/mL]	IC50 neutralization, 1 hour virus/Ab incubation (HIV-1 SF162 Env [2]) [µg/mL]	IC50 neutralization, 18 hour virus/Ab incubation (HIV-1 SF162 Env [2]) [µg/mL]	IC50 neutralization, 1 hour virus/Ab incubation (HIV-1 94UG103 Env) [µg/mL]	IC50 neutralization, 18 hour virus/Ab incubation (HIV-1 94UG103 Env) [µg/mL]	IC50 neutralization, 1 hour virus/Ab incubation (HIV-1 92BR020 Env) [µg/mL]	IC50 neutralization, 18 hour virus/Ab incubation (HIV-1 92BR020 Env) [µg/mL]	IC50 neutralization, 1 hour virus/Ab incubation (HIV-1 93IN905 Env) [µg/mL]	IC50 neutralization, 18 hour virus/Ab incubation (HIV-1 93IN905 Env) [µg/mL]	IC50 neutralization, 1 hour virus/Ab incubation (HIV-1 IAVI_C22 Env) [µg/mL]	IC50 neutralization, 18 hour virus/Ab incubation (HIV-1 IAVI_C22 Env) [µg/mL]	IC50 neutralization, 1 hour virus/Ab incubation (HIV-1 92TH021 Env) [µg/mL]	IC50 neutralization, 18 hour virus/Ab incubation (HIV-1 92TH021 Env) [µg/mL]	IC50 neutralization, 1 hour virus/Ab incubation (HIV-1 NL43 Env) [µg/mL]	IC50 neutralization, 18 hour virus/Ab incubation (HIV-1 NL43 Env) [µg/mL]	IC50 neutralization, 1 hour virus/Ab incubation (aMLV Env) [µg/mL]	IC50 neutralization, 18 hour virus/Ab incubation (aMLV Env) [µg/mL]
B1	0.67	< 0.0025	< 0.0025	> 50	> 50	0.0211	0.0085	> 50	> 50	0.33	0.255	0.114	0.106	0.136	0.0435	< 0.0025	4.99	> 50	> 50
B2	–	> 50	> 50	0.0069	< 0.0025	> 50	> 50	1.17	0.244	> 50	0.146	> 50	13.4	> 50	> 50	0.35	0.15	> 50	> 50
B3	–	–	–	> 50	> 50	0.334	0.0942	> 50	> 50	0.144	0.0619	24.9	2.11	0.0612	0.0571	0.294	38	> 50	> 50
B4	0.94	–	–	–	–	–	–	–	–	–	–	–	–	–	–	–	–	–	–
B5	–	> 50	> 50	0.195	0.0661	> 50	> 50	> 50	> 50	> 50	3.84	> 50	> 50	> 50	> 50	0.2	0.05	> 50	> 50
B6	39.4	–	–	–	–	> 50	> 50	> 50	> 50	> 50	3.17	> 50	> 50	> 50	> 50	0.17	0.05	> 50	> 50
